For one substance, activity results are on record in US20100261778.

The data set concerns the target p53 wild-type (UniProt P04637). As to the kind of experiment: cell_activity. The following applies: dual luciferase activation in H1299 (p53 null).

Sequence of p53 wild-type (P04637 whole entry): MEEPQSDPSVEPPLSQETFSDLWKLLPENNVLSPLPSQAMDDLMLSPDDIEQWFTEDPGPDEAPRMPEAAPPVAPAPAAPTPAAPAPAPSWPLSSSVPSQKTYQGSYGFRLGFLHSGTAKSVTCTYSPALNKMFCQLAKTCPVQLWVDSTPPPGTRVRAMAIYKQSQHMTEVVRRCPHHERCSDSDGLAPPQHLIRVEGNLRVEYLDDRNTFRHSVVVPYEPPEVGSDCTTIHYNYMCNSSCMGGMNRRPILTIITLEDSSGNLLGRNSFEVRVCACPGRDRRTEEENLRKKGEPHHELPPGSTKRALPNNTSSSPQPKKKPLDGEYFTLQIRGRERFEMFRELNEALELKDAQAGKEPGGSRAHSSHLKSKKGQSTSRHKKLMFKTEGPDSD

“killin promoter 140 bp fragment with p53 site (pGL3-Killin)” registered an activity of 70 fold.
